Reference: article PMC3874162 (Nucleic Acids Research, 2013)
Where a chain is given by its changes, count along the chain named.

What was measured:
Cdc13-L91R = target: T1, Cdc13-L91R (Saccharomyces cerevisiae, UniProt P32797 1-924, L91R); assay: filter binding
T1 sequence: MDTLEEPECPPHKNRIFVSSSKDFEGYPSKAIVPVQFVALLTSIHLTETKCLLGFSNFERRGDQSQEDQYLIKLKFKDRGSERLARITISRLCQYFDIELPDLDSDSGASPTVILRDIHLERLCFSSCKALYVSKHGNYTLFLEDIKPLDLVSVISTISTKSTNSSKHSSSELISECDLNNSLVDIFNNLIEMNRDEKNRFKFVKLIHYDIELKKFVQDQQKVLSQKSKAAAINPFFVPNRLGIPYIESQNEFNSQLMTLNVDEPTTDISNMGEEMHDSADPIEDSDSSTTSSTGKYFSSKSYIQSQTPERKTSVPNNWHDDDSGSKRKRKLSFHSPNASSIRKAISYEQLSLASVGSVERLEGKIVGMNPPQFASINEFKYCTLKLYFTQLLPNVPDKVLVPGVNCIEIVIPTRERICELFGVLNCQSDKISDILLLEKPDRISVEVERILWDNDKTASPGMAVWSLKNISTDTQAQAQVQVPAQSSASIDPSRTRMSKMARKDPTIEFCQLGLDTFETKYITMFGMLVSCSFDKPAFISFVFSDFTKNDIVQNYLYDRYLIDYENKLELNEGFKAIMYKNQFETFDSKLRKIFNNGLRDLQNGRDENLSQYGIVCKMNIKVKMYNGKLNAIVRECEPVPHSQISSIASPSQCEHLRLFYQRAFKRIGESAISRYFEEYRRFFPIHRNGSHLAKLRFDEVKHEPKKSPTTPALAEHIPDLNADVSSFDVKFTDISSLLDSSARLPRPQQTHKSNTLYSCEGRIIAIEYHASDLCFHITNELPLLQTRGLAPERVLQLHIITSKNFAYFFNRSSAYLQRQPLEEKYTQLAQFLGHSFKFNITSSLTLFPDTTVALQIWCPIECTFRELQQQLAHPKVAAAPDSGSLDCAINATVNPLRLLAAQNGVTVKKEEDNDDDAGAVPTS

Cdc13-DBD = target: T2, Cdc13-DBD (Saccharomyces cerevisiae, UniProt P32797 497-694); assay: filter binding
T2 sequence: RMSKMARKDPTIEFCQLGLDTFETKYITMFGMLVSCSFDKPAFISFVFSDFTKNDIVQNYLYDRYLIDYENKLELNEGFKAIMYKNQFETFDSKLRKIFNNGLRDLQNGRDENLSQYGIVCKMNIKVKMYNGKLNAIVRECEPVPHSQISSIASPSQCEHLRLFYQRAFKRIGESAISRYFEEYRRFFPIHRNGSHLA

Cdc13-Y561A = target: T3, Cdc13-Y561A (Saccharomyces cerevisiae, UniProt P32797 1-924, Y561A); assay: EMSA
T3 sequence: T1 sequence with R91L, Y561A

## GTGTGGGTGTG (ssDNA) [Tel11]
Cdc13-L91R
  Kd: 0.22 ± 0.05 nM
Cdc13-DBD
  Kd: 0.21 ± 0.02 nM
Cdc13-Y561A
  Kd: 0.017 ± 0.001 nM
